Experimental data reported in patent US20190016812A1 (AbbVie / Abbott, published 2019).
Where two headings read alike, the source gives them in different places.

What was measured:
[1] = molecular target: T1, hTNFSF9-His (monomeric human TNFSF9 extracellular domain with 9x-Histidine tag) (human, UniProt P41273 50-254); test: SPR (Biacore)
T1 construct: also called hTNFSF9-His protein; monomeric hTNFSF9-His antigen

[2] = molecular target: T2, cynomolgus TNFSF9 (cTNFSF9) protein, soluble recombinant (cynomolgus); test: SPR (Biacore)
T2 construct: extracellular domain; also called cynomolgus TNFSF9 protein

[3] = molecular target: T3, human TNFSF9 (hTNFSF9), full length, overexpressed on HEK293T cells (human, UniProt P41273 1-254); test: cell-based or functional assay
[4] = molecular target: T4, cynomolgus TNFSF9 (cTNFSF9), full length, overexpressed on HEK293T cells (cynomolgus); test: cell-based or functional assay
[5] = molecular target: T5, human TNFSF9 (R&D Systems; #2295-4L-025/CF) (human, UniProt P41273 71-254, limits assumed); test: MSD ELISA: TNFSF9 + 1 ug/mL antibody, binding to coated TNFRSF9
T5 construct: also called TNFSF9 (ligand); TNFSF9 ligand

[6] = molecular target: T1, hTNFSF9-His (monomeric human TNFSF9 …); test: SPR (Biacore); remark: listed apart in the source
[7] = molecular target: T2, cynomolgus TNFSF9 (cTNFSF9) protein, …; test: SPR (Biacore); remark: listed apart in the source
[8] = molecular target: T3, human TNFSF9 (hTNFSF9), full length, …; test: cell-based or functional assay; remark: listed apart in the source
[9] = molecular target: T4, cynomolgus TNFSF9 (cTNFSF9), full …; test: cell-based or functional assay; remark: listed apart in the source
[10] = molecular target: T5, human TNFSF9 (R&D Systems; …); test: MSD ELISA: TNFSF9 + 1 ug/mL antibody, binding to coated TNFRSF9; remark: listed apart in the source

T5 sequence (P41273 71-254 limits assumed): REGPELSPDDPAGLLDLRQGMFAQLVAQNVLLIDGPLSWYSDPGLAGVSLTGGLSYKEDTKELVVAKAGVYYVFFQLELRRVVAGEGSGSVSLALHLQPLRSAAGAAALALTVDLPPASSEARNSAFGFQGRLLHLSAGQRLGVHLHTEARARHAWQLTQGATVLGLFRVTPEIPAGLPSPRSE
T1 sequence (P41273 other isoform, or with tags, fused parts or gaps): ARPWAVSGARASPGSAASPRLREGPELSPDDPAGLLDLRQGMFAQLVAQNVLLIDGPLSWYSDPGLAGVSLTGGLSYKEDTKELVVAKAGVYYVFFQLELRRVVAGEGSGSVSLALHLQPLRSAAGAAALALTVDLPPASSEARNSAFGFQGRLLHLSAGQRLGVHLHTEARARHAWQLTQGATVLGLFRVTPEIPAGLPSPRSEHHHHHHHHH

Binder | Kd [1] | Kd [2] | % live cells, Fab-saporin killing, 250 pM antibody [3] | % live cells, Fab-saporin killing, 250 pM antibody [4] | % inhibition of ligand receptor interaction [5] | Kd [6] | Kd [7] | % live cells, Fab-saporin killing, 250 pM antibody [8] | % live cells, Fab-saporin killing, 250 pM antibody [9] | % inhibition of ligand receptor interaction [10]
SC113.44 (antibody, mouse IgG1, V domains shown, mouse IgG1) VH: QVQLQQSGPELVKPGTSVRISCKASGYTFTSYYIHWVKQRPGQGLEWIGWIYPRDVDTKYNETFKGKATLTADKSSSTAYIQLNSLTSEDSAVYFCARELTGTVFDYWGQGTTLTVSS VL: QIVLSQSPAILSASPGEKVTMTCRASSSVTYMHWYQRKPGSSPKPWIYATSTLASGVPARFSGTGSGTSYSLTISRVEAEDAATYFCQQWSSNPLTFGAGTKLELK | 9 nM | 13 nM | 10.8% | 33.9% | 48% |  |  |  |  | 
SC113.15 (antibody, mouse IgG1, V domains shown, mouse IgG1) VH: QVQLQQSGAELAKPGASVKMSCKASGYTFTTFWMHWLKQRPGQGLEWIGYINPRTYFTYYNQKFEDQATLTADESSSTAYMQLNSLTSEDSAVYYCATHHGGFDVWGAGTTVTVSS VL: DVVMTQTPLSLPVSLGDQASISCRSSQSLVHSNGDTYLHWYLQKPGQSPKLLIYKVSNRFSGVPDRFSGSRSGTDFTLKISRVEAEDLGIYFCSQSTHVPYTFGGGTKLEIK |  |  |  |  |  | 5 nM | 11 nM | 20.2% | 107% | 42%
SC113.14 (antibody, mouse IgG2a, V domains shown, mouse IgG2a) VH: QVQLQQSGAELVKPGASVKLSCKASGYTFTEYTIHWVKQKSGQGLEWIGWFYPGSGSLKFNEKFKDKATLTADISSNTVYMELSRLTSEDSAVYFCARHEDFFYFDSYTMDYWGQGTSVTVSS VL: QIVLTQSPAIMSASPGEKVTLTCSASSSVSSSYLYWYQQKPGSSPKLWIYSTSKLSSGVPARFSGSGSGTSYSLTISSMEAEDAASYFCHQWSTYPWTFGGGTKLEIK |  |  |  |  |  | 3 nM | 7 nM | 10.2% | 11% | -34%
